Data set [1] concerns the target EBV NEC215-N31S_(BFLF2)/F267W_(BFLF2)-His8 (Epstein-Barr virus (strain B95-8)) (UniProt P03185).
In data set [2] the target is EBV NEC215-N31S_(BFLF2)/L262F_(BFLF2)-His8 (Epstein-Barr virus (strain B95-8)) (UniProt P03185).
Data set [3] deals with EBV NEC215-N121Q_(BFRF1)/N31S_(BFLF2)-His8 (Epstein-Barr virus (strain B95-8)) (UniProt P03185).
Data set [4] has as its target EBV NEC215-Q43A_(BFRF1)/N31S_(BFLF2)-His8 (Epstein-Barr virus (strain B95-8)) (UniProt P03185).
Data set [5] concerns the molecule itself. Put plainly: crystal structure; EBV NEC195Δ65; hanging drops at 20°C, protein in 20 mM HEPES pH 8.0, 100 mM NaCl, 0.5 mM TCEP over 25% PEG 3350, 0.1 M Tris-HCl pH 8.5, 0.2 M Li2SO4; space group P4(3)2(1)2, five heterodimers in the asymmetric unit; 3.97 Å.

With “EBV NEC215-N31S_(BFLF2)/F267W_(BFLF2)-His8 (from UniProt P03185 1-215; P0CK47 1-318) (complex)”, the in-vitro GUV budding assay (intraluminal vesicles, 1.5 uM NEC, Ni-chelating lipids), against WT EBV NEC215-N31S (BFLF2)-His8 (% of the WT EBV NEC) in data set [1] was less than 25.

“EBV NEC215-N31S_(BFLF2)/L262F_(BFLF2)-His8 (from UniProt P03185 1-215; P0CK47 1-318) (complex)” showed an in-vitro GUV budding assay (intraluminal vesicles, 1.5 uM NEC, Ni-chelating lipids), against WT EBV NEC215-N31S (BFLF2)-His8 (% of the WT EBV NEC) in data set [2] of less than 25.

“EBV NEC215-N121Q_(BFRF1)/N31S_(BFLF2)-His8 (from UniProt P03185 1-215; P0CK47 1-318) (complex)” gave an in-vitro GUV budding assay (intraluminal vesicles, 1.5 uM NEC, Ni-chelating lipids), against WT EBV NEC215-N31S (BFLF2)-His8 in data set [3] of 2 fold.

On to “EBV NEC215-Q43A_(BFRF1)/N31S_(BFLF2)-His8 (from UniProt P03185 1-215; P0CK47 1-318) (complex)”, for which the in-vitro GUV budding assay (intraluminal vesicles, 1.5 uM NEC, Ni-chelating lipids), against WT EBV NEC215-N31S (BFLF2)-His8 (% of the WT EBV NEC) in data set [4] is less than 25.

B1: EBV NEC195Δ65 (complex)
chain 1: MASPEERLLDELNNVIVSFLCDSGSLEVERCSGAHVFSRGSSQPLCTVKLRHGQIYHLEFVYKFLAFKLKNCNYPSSPVFVISNNGLATTLRCFLHEPSGLRSGQSGPCLGLSTDVDLPKNSIIMLGQDDFIKFKSPLVFPAELDLLKSMVVCRAYITEHRTTMQFLVFQAANAQKASRVMDMISDMSQQLSRSG
chain 2: RSICSRHTRHGVDRSHFSLRDFFRGISANFELGKDFLREMNTPIHVSEAVFLPLSLCTLSPGRCLRLSPFGHSLTLGSHCEICINRSQVHVPQEFSSTQLSFFNNVHKIIPNKTFYVSLLSSSPSAVKAGLSQPSLLYAYLVTGHFCGTICPIFSTNGKGRLIMHLLLQGTSLHIPETCLKLLCENIGPTYELAVDLVGDAFCIKVSPRDTVYEKAVNVDEDAIYEAIKDLECGDELRLQIINYTQLILENKQ
notes: BFRF1 of Epstein-Barr virus strain B95-8, residues 1-195; BFLF2 of Epstein-Barr virus strain B95-8, residues 66-318; Heterodimer of m1 and m2; used for the NEC/NEC dimers seen in the crystal; also called nuclear egress complex; NEC1-5 (copies in the crystal); source: E. coli Rosetta (DE3), co-expressed, purified (Ni-NTA, glutathione Sepharose, S75 size exclusion); not shown: GST, …
Take B1: in data set [5], the binding result is “binds”.
